The target in test [1] is anti-TRP-1 antibody (TA99, BioXcell). Put plainly: cell-based or functional assay.
The target in test [2] is anti-CD20 antibody (18B12, Absolute antibody). Put plainly: cell-based or functional assay.

Consider “Alpha-2A-gamma (extracellular, transmembrane and intracellular domains of FcγRI, T2A skipping peptide and FcRγ) (receptor)”, for which, in test [1], the B16-H2B-tdTomato target cell count after 48 hours co-culture with infected CD8+ T cells and anti-TRP-1 antibody (FIG. 8C; sham: around 750 B16 cells) worked out at 575 B16 cells; the killing of B16-H2B-tdTomato target cells by infected CD4+ and CD8+ T cells with anti-TRP-1 antibody, incuCyte target cell numbers after 48 hours; effector : target ratio needed (effector : target ratio (x to 1)) is over 8. With “Alpha-gamma-2A-gamma (extracellular and transmembrane domains of FcγRI fused to the intracellular domain of FcRγ, T2A skipping peptide and FcRγ) (receptor)”, the A20 B-cell lymphoma cell death by Annexin-V staining in flow cytometry after co-culture with infected CD8+ T cells and anti-CD20 antibody in test [2] worked out at 20%. The substance further came in with a B16-H2B-tdTomato target cell count after 48 hours co-culture with infected CD8+ T cells and anti-TRP-1 antibody (FIG. 8C; sham: around 750 B16 cells) in test [1] of 460 B16 cells.

As for “Alpha-gamma-2A-gamma (extracellular and transmembrane domains of FcγRI fused to the intracellular domain of FcRγ, T2A skipping peptide and FcRγ)”, the killing of B16-H2B-tdTomato target cells by infected T cells with anti-TRP-1 antibody, incuCyte; effector : target ratio at which killing was induced (effector : target ratio (x:1)) in test [1] is 2.
